Data taken from paper PMC7523994.

Key:
[1] = target: α-gliadin (Triticum aestivum); assay: SPR; α-gliadin, γ-gliadin or (PQQPY)8 covalently bound to a CM5 chip (EDC/NHS, 10 mM acetate pH 4.7); PINA flowed over at 10 μL/min, 25°C, 10 mM Hepes pH 7.4, 150 mM NaCl, 3.4 mM EDTA, 0.005% P20; global kinetic fit, 1:1 Langmuir model
[2] = target: γ-gliadin (Triticum aestivum) (UniProt P08453); assay: as above
[3] = target: total gliadin fraction (Triticum aestivum); assay: turbidimetry; optical density at 540 nm after 30 min of mixing at room temperature; gliadins constant at 1 mg/mL, PINA 0 to 0.1 mg/mL; 20 mM citrate pH 5, with or without 0.1 M NaCl; Hill ligand-binding model
[4] = target: total gliadin fraction (Triticum aestivum); assay: turbidimetry; optical density at 540 nm after 30 min of mixing at room temperature; gliadins constant at 1 mg/mL, PINA 0 to 0.1 mg/mL; 20 mM malate pH 5, with or without 0.1 M NaCl; Hill ligand-binding model
[5] = target: total gliadin fraction (Triticum aestivum); assay: turbidimetry; optical density at 540 nm after 30 min of mixing at room temperature; gliadins constant at 1 mg/mL, PINA 0 to 0.1 mg/mL; 20 mM Tris-HCl pH 7.2, with or without 0.1 M NaCl; Hill ligand-binding model

Sequence of γ-gliadin (Triticum aestivum) (P08453 20-327): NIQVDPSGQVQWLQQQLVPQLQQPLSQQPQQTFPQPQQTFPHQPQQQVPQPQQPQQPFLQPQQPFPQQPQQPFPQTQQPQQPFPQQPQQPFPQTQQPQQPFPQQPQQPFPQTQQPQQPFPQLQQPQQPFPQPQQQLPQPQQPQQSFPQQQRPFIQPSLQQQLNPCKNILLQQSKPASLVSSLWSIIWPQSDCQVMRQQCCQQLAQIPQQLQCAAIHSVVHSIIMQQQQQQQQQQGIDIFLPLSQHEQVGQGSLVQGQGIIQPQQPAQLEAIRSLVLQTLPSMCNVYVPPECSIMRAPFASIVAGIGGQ

B1: puroindoline A (natural protein)
chain: DVAGGGGAQQCPVETKLNSCRNYLLDRCSTMKDFPVTWRWWKWWKGGCQELLGECCSRLGQMPPQCRCNIIQGSIQGDLGGIFGFQRDRASKVIQEAKNLPPRCNQGPPCNIPGTIGYYW
Binder B1 has a Kd [1] of 4450 nM, a koff [1] of 0.00255 s⁻¹ and a kon [1] of 450 M⁻¹ s⁻¹. It also gave a response at equilibrium at 2.5 μM PINA [1] of 160 RU, a Kd [2] of 630 nM and a koff [2] of 0.00185 s⁻¹. It also gave a kon [2] of 3600 M⁻¹ s⁻¹, a response at equilibrium at 2.5 μM PINA [2] of 34 RU and a Kd [3] of 600 nM. It also gave a Kd [4] of 400 nM and a Kd [5] of 1000 nM.
